Assay [1] deals with T1, MBP-Aβ40 fusion protein.
T1 construct: the entry may be a nucleic acid; Biotin-labelled in the capture ELISA, unlabeled in the direct ELISA and SPR; also called MBP-Abeta40
The assay can be described thus: SPR (Biacore), MBP-Aβ40 amine-coupled; same experiment as the 1st table, row 20, column 3, printed with more digits. The procedure: (§1) FIG. 8 depicts the kinetic real time analysis of Lcn2 muteins S1-A4 (A) and US7 (B) measured on a Biacore instrument at a flow rate of 10 μl/min. The MBP-Aβ40 fusion protein was coupled via amine chemistry on a CMD 200I chip (ΔRU=1455) and each of the purified Lcn2 muteins was applied in a series at different concentrations. The measured signal is shown as a grey line whereas the curve fit is depicted as a black line in each case.
(§2) Real time analysis of Lcn2 muteins was performed on a Biacore X system (Biacore, Uppsala, Sweden) using PBS/T (PBS containing 0.005% (v/v) Tween 20) as running buffer. A 50 μg/mL solution of MBP-Aβ40 from Example 2 in 10 mM Na-acetate, pH 4.5 was immobilized onto a […] chip (Xantec, Düsseldorf, Germany) using standard amine coupling chemistry, resulting in a ligand density of 1455 resonance units (RU). […] The sensorgrams were corrected by subtraction of the corresponding signals measured for the control channel, which had been activated and blocked with ethanolamine. […] During this step the kₒₙ and koff rates were fitted globally, while the maximum response difference Rₘₐₓ was fitted locally for each curve.
In general terms: In SPR one partner is held on a chip, and binding of the other changes the refractive index at the surface.

The next assay addresses T2, central peptide Aβ16-27.
T2 construct: Bought from the Peptide Speciality Laboratory
T2 peptide: KLVFFAEDVGSN
The assay is described as follows: capture ELISA: mutein captured, Aβ16-27 titrated. A general note: ELISA stands for enzyme-linked immunosorbent assay.

Assay [2] has as its target T1, MBP-Aβ40 fusion protein. The assay is described as follows: SPR (Biacore), MBP-Aβ40 amine-coupled (1455 RU), mutein as analyte. How it is done: as §1, §2
Assay [3] deals with T1, MBP-Aβ40 fusion protein. The assay is described as follows: SPR (Biacore X), MBP-Aβ40 amine-coupled, mutein as analyte. The procedure:
as §2

The target of assay [4] is T1, MBP-Aβ40 fusion protein. The assay can be described thus: capture ELISA: mutein captured, biotinylated MBP-Aβ40 titrated. The procedure: (§3) FIG. 5 depicts the binding activity of the Lcn2 muteins H1-G1, S1-A4, and US7 in capture ELISAs with different biotinylated Aβ targets. StrepMAB-Immo at 10 μg/ml was immobilized on microtitre plates and employed for capturing of 1 JAM Lcn2 muteins via the Strep-tag H. In figures A to C the binding of the Lcn2 muteins S1-A4 and US7 to (A) biotinylated Aβ40, (B) biotinylated Trx-Aβ28, and (C) biotinylated MBP-Aβ40 are shown. Binding was detected by incubation with ExtrAvidin/AP and a subsequent chromogenic reaction with pNPP. Ovalbumin (Ova), thioredoxin (Trx), and maltose binding protein (MBP) were used as negative controls. Additionally, binding of wild-type (wt) lipocalin was tested. The data were fitted to a monovalent binding model.
For selective capturing of the Lcn2 muteins carrying the C-terminal Strep-tag II (Schmidt and Skerra (2007) Nat. Protoc. 2, 1528-1535), a 96-well MaxiSorp polystyrene microtitre plate (Nunc, Langenselbold, Germany) was coated with 10 μg/mL StrepMAB-Immo (IBA, Göttingen, Germany) in PBS over night at 4° C. and blocked with 3% (w/v) BSA in PBS/T at room temperature for 1 h. After 3 washing steps with PBS/T, 50 μL of a 1 μM solution of the purified Lcn2 muteins from Example 7 were applied to all wells for 1 h. […]

Assay [5] concerns the target T3, Trx-Aβ28 fusion protein (Escherichia coli (strain K12), UniProt P0AA25 1-76 = thioredoxin, Biotin-labelled through an NHS ester (2:1) in the capture and competitive ELISAs; unlabeled in the direct ELISA and as competitor.).
T3 construct: the entry may be a nucleic acid; also called TrxAbeta28H6
The assay can be described thus: competitive ELISA: mutein captured, 40 nM biotinylated Trx-Aβ28 as tracer, unlabeled Trx-Aβ28 varied as competitor. How it is done:
Alternatively, a “competitive” ELISA was performed in a similar manner as the “capture” ELISA described above. Again, after immobilizing StrepMAB-Immo and washing, 50 μL of a 1 μM solution of the purified Lcn2 mutein from Example 7 was applied to all wells for 1 h. After washing, the biotinylated target Trx-Aβ28 from Example 2 was applied at a fixed concentration of 5 nM (for S1-A4) or 40 nM (for US7) in the presence of varying concentrations of the free non-labeled Trx-Aβ28 target as competitor. Starting with a 100-fold excess, the competitor concentration was decreased by the factor 3 in each step. In this case, the data were fitted to the sigmoidal equation

For assay [6], the target named is T1, MBP-Aβ40 fusion protein. The assay can be described thus: direct ELISA: MBP-Aβ40 coated, mutein titrated, detected via Strep-tag II. The procedure: (§4) The Aβ targets Trx-Aβ28 and MBP-Aβ40 as well as the control protein maltose binding protein (MBP) were immobilized at 2 μM in PBS over night. Bound Lcn2 muteins were detected via their Strep-tag II using Streptavidin/AP followed by a chromogenic reaction with pNPP. As a control, the binding of wild-type (wt) lipocalin was tested. The data were fitted to a monovalent binding model.
(§5) Alternatively, for a “direct” ELISA, 2 μM unlabeled Aβ40 target from Example 2 was adsorbed onto a 96-well MaxiSorp polystyrene microliter plate (Nunc, Langenselbold, Germany) and incubated with the purified Lcn2 mutein, which was detected via the Strep-tag II using a 1:1500 dilution of Streptavidin/AP conjugate (GE Healthcare UK Ltd, Buckinghamshire, UK). As a control, 2 μM MBP from Example 2 was adsorbed onto the ELISA plate. Absorption at 405 nm was measured in a SpectraMax 250 reader (Molecular Devices, Sunnyvale, USA).

The target in assay [7] is T3, Trx-Aβ28 fusion protein. The assay can be described thus: capture ELISA: mutein captured, biotinylated Trx-Aβ28 titrated. The procedure:
as §3
(§6) For selective capturing of the Lcn2 muteins carrying the C-terminal Strep-tag II (Schmidt and Skerra (2007) Nat. Protoc. 2, 1528-1535), a 96-well MaxiSorp polystyrene microtitre plate (Nunc, Langenselbold, Germany) was coated with 10 μg/mL StrepMAB-Immo (IBA, Göttingen, Germany) in PBS over night at 4° C. and blocked with 3% (w/v) BSA in PBS/T at room temperature for 1 h. After 3 washing steps with PBS/T, 50 μL of a 1 μM solution of the purified Lcn2 muteins from Example 7 were applied to all wells for 1 h. After washing, 50 μL of a dilution series of the biotinylated targets Aβ40, MBP-Aβ40 or Trx-Aβ28 from Example 2 were added and incubated for 1 h whereby the biotinylated forms of Ova, MBP and Trx from Example 2 served as negative control proteins. The wells were washed again and bound conjugate was detected with 50 μL of ExtrAvidin/AP conjugate (Sigma-Aldrich, Steinheim, Germany) diluted 1:5000 in PBS/T for 1 h, followed by signal development in the presence of 100 μL 0.5 mg/mL p-nitrophenyl phosphate (AppliChem, Darmstadt, Germany) in 100 mM Tris/HCl, pH 8.8, 100 mM NaCl, 5 mM MgCl₂.

Another assay addresses T4, ovalbumin (UniProt P01012 2-386).
T4 sequence (looked up): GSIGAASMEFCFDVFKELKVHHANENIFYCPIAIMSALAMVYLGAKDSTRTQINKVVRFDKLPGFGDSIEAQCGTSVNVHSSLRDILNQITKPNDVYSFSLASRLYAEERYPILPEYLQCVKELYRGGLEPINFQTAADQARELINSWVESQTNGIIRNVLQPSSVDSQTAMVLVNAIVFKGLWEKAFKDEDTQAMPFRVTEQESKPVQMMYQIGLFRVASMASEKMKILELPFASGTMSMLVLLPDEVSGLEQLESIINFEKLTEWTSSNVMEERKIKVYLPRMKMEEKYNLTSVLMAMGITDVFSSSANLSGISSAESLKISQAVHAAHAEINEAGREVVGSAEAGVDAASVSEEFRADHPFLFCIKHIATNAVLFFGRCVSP
The assay is described as follows: capture ELISA: 1 µM Lcn2 protein captured via Strep-tag II on coated StrepMAB-Immo, biotinylated target titrated, ExtrAvidin/AP + pNPP. The procedure:
as §3, §6

The target in assay [8] is T3, Trx-Aβ28 fusion protein. The assay can be described thus: direct ELISA: Trx-Aβ28 coated, mutein titrated, detected via Strep-tag II. How it is done:
as §4, §5

Assay [9] deals with T5, biotinylated Aβ40 peptide (human, C-terminal biotin group attached via a lysine spacer).
T5 construct: Synthetic peptide (Peptide Speciality Laboratory) with a C-terminal biotin on a lysine spacer; used in the capture ELISAs
The assay can be described thus: capture ELISA: mutein captured via Strep-tag II on StrepMAB-Immo, biotinylated Aβ40 titrated. How it is done:
as §3, §6

Assay [10] deals with T6, Aβ40 peptide, non-labeled (human).
T6 construct: Non-labeled synthetic peptide (W. M. Keck Laboratory); also called Abeta40; amyloid beta peptide
The assay can be described thus: SPOT membrane of overlapping Aβ40 peptides, 100 nM mutein.

Assay [11] deals with T7, recombinant human fibronectin fragment FN7B8 (human, UniProt P02751 1173-1448).
T7 construct: no separate number is printed for the protein, so the entry may be a nucleic acid
The assay can be described thus: ELISA: FN7B8 coated, Lcn2 protein titrated, detected via Strep-tag II with Streptavidin-alkaline phosphatase + pNPP. How it is done:
FIG. 12 depicts binding activity in the ELISA. A microliter plate was coated with the purified proteins FN7B8 and FN789 and incubated with a dilution series of the selected Lcn2 muteins, followed by detection with Streptavidin-alkaline-phosphatase conjugate and pNPP substrate.
To adsorb FN7B8 or FN789 onto the surface of a 96-well Nunc Maxisorp plate (Thermo Fisher Scientific, Langenselbold, Germany) 50 μl of a 100 μg/ml protein solution in TBS/E was added per well and incubated at room temperature for 2 h. Additionally, to include control proteins, blank wells were exposed to 120 μl 2% (w/v) BSA (AppliChem, Darmstadt, Germany) in TBS/ET. […] The wells were washed again and bound Lcn2 muteins were detected with 50 μL of Streptavidin-alkaline phosphatase conjugate (GE Healthcare, Munich, Germany) diluted 1:1500 in TBS/T for 1 h, followed by signal development in the presence of 50 μl 0.5 mg/ml p-nitrophenyl phosphate in 100 mM Tris/HCl, 100 mM NaCl, 5 mM MgCl₂, pH 8.8. The time course of absorption AA/At at 405 nm was measured in a SpectraMax 250 reader (Molecular Devices, Sunnyvale, Calif.) and the data were fitted with KaleidaGraph software (Synergy software, Reading, Pa.) to the equation

Assay [12] deals with T6, Aβ40 peptide, non-labeled. The assay is described as follows: SPOT membrane of overlapping Aβ40 peptides.
Assay [13] deals with T3, Trx-Aβ28 fusion protein. The assay can be described thus: capture ELISA: 1 µM Lcn2 protein captured via Strep-tag II on coated StrepMAB-Immo, biotinylated target titrated, ExtrAvidin/AP + pNPP. How it is done: as §3, §6
Assay [14] has as its target T5, biotinylated Aβ40 peptide. The assay is described as above. The procedure: as §3, §6

The text below walks through data of patent publication US20130079286A1 (Pieris, published 2013).

What is called Kd is a measure of binding affinity in units of concentration. In general, koff refers to the rate constant with which the complex falls apart. Lower therefore signals slow dissociation. Broadly, the kon is the rate constant with which the complex forms.

T5 sequence (peptide, as listed by the source): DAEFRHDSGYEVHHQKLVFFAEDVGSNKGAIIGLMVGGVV
T6 sequence (peptide, as listed by the source): as above
T7 sequence (P02751 other isoform, or with tags, fused parts or gaps limits assumed): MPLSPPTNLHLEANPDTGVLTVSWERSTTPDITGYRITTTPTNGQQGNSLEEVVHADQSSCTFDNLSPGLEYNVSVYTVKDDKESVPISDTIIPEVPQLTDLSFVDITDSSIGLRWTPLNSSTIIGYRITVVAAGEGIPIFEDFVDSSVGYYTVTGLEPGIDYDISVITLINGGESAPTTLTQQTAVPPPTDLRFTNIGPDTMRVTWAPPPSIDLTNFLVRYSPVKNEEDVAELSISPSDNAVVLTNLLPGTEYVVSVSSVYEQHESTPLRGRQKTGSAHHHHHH

B1: Lcn2 mutein US7 (designed binder)
chain: QDSTSDLIPAPPLSKVPLQQNFQDNQFHGKWYVVGVAGNKSLREDKDPWKMYATIYELKEDKSYNVTSVGFGTKKCHYKIRTFVPGSQPGEFTLGRIKSRPGRTSALVRVVSTNYNQHAMVFFKVVQQNRESFNITLYGRTKELTSELKENFIRFSKSLGLPENHIVFPVPIDQCIDG
For the molecule B1, the equilibrium dissociation constant (Kd) in the assay with MBP-Aβ40 fusion protein [1] is 1.25 nM; in the assay with central peptide Aβ16-27, 2.1 nM; in the assay with MBP-Aβ40 fusion protein [3] it was 1.3 nM; with MBP-Aβ40 fusion protein [4], 11.4 nM; with Trx-Aβ28 fusion protein [5], 76.9 nM; in the assay with MBP-Aβ40 fusion protein [6], 49.7 nM. For the same molecule, the Kd in the assay with Trx-Aβ28 fusion protein [7] stood at 2.4 nM; with Trx-Aβ28 fusion protein [8] it was 9.6 nM; in assay [9] it was 6.8 nM. Further, in the assay with MBP-Aβ40 fusion protein [2], the koff is 0.000252 s⁻¹. Besides, in the assay with MBP-Aβ40 fusion protein [2], the kon was 202000 M⁻¹ s⁻¹. For the same molecule, the binding result is “no binding (tested: 250 nM)” with ovalbumin and “binds” in assay [10].

B2: recombinant wild-type human Lipocalin 2 (other)
chain: QDSTSDLIPAPPLSKVPLQQNFQDNQFQGKWYVVGLAGNAILREDKDPQKMYATIYELKEDKSYNVTSVLFRKKKCDYWIRTFVPGSQPGEFTLGNIKSYPGLTSYLVRVVSTNYNQHAMVFFKKVSQNREYFKITLYGRTKELTSELKENFIRFSKSLGLPENHIVFPVPIDQCIDG
notes: also called wt Lcn2; wild type Lcn2
As for B2, the binding result is “no binding (tested: 250 nM)” in assay [11]; “no binding (tested: 100 nM)” in assay [12]; “no binding (tested: 250 nM)” with ovalbumin; “no binding” in the assay with Trx-Aβ28 fusion protein [13]; “no binding” in assay [14].
